B1: library; numbered along this chain (parent)
chain: MAAAAAAAAEQQSSNGPVKKSMREKAVERRSVNKEHNSNFKAGYIPIDEDRLHKTGLRGRKGNLAICVIILLFILAVINLIITLVIWAVIRIGPNGCDSMEFHESGLLRFKQVSDMGVIHPLYKSTVGGRRNENLVITGNNQPIVFQQGTTKLSVENNKTSITSDIGMQFFDPRTQNILFSTDYETHEFHLPSGVKSLNVQKASTERITSNATSDLNIKVDGRAIVRGNEGVFIMGKTIEFHMGGNMELKAENSIILNGSVMVSTTRLPSSSSGDQLGSGDWVRYKLCMCADGTLFKVQVTSQNMGCQISDNPCGNTH

Variants of: B1
Experiment: SGCB cell-surface expression functional score (HA stain, bin4 vs bin1, normalised to synonymous) (log10 ratio); higher = more cell-surface SGCB (functional)
Method: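 Deep mutational scan of full-length human SGCB (YFP-SGCB-HA, NNN codon sublibraries A-F) delivered by lentivirus at low MOI into ADG-HEK293 cells stably expressing SGCA, SGCD and SGCG. YFP-positive cells were stained for surface HA on unpermeabilized cells and FACS-sorted into bins. The functional score is log10(frequency in high bin 4 / frequency in low bin 1), normalised per chunk so that synonymous variants have mean 0 and SD 0.5. Scores are the median over codons and over duplicate biological replicates; scores below -0.5 are called non-functional. Scale: negative means deleterious.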

Variant | SGCB cell-surface expression functional score (log10)
V27C | -0.05
V27H | 0.05
V27G | -0.22
V27F | 0.28
V27R | 0.06
V27D | -0.2
V27N | 0.45
V27L | 0.26
V27M | -0.41
V27P | -0.17
V27T | 0.04
V27E | 0.04
V27A | 0.22
V27Q | 0.09
V27Y | 0.26
V27W | 0.1
V27S | 0.13
V27K | 0.02
V27I | 0.03
N15Q | 0.32
N15K | 0.05
N15V | 0.31
N15T | 0.14
N15W | 0.29

Variant | SGCB cell-surface expression functional score (log10)
N15Y | 0.13
N15I | 0.04
N15P | 0.34
N15H | -0.07
N15L | 0.32
N15R | 0.19
N15S | -0.02
N15M | 0.35
E28Y | 0.37
E28M | 0.57
E28R | 0.1
E28N | -0.09
E28P | 0.08
E28T | 0.1
E28K | -0.15
E28D | -0.25
E28G | -0.33
E28H | -0.19
E28V | 0.15
E28I | 0.42
E28S | 0.21
E28A | -0.15
E28Q | 0
E28F | 0.2

Variant | SGCB cell-surface expression functional score (log10)
E28L | 0.05
E28W | -0.12
E28C | 0.35
M22H | 0.19
M22E | 0.07
M22W | 0.08
M22S | 0.52
M22P | 0.17
M22N | 0.39
M22Q | 0.27
M22F | 0.1
M22T | 0.16
M22G | -0.11
M22L | 0.37
M22Y | -0.14
M22V | 0.01
M22C | 0.56
M22R | 0.01
M22D | -0.21
M22I | -0.22
M22K | 0.08
M22A | 0.08
K25Q | 0.5
K25W | -0.25

Variant | SGCB cell-surface expression functional score (log10)
K25M | -0.1
K25I | 0.13
K25N | 0.42
K25R | -0.14
K25E | 0.07
K25L | 0.18
K25V | 0.16
K25T | 0.27
K25Y | -0.31
K25F | -0.28
K25D | 0.19
K25A | -0.05
K25H | -0.78
K25G | -0.06
K25P | 0.05
K25C | 0.39
K25S | 0.46
V18M | -0.08
V18N | -0.03
V18I | 0.24
V18F | 0
V18Y | 0.14
V18W | 0.55
V18L | -0.01

Variant | SGCB cell-surface expression functional score (log10)
V18E | 0.13
V18A | 0.26
V18Q | 0.17
V18K | 0.16
V18C | -0.07
V18T | 0.24
V18R | 0.23
V18D | 0.09
V18G | 0.04
V18P | 0.29
V18S | 0.21
V18H | -0.54
K20A | 0.08
K20G | -0.09
K20L | 0.12
K20F | 0.1
K20W | 0.05
K20M | 0.39
K20E | 0.06
K20Q | 0.49
K20C | 0.12
K20S | 0.14
K20R | 0.2
K20V | 0.32

Variant | SGCB cell-surface expression functional score (log10)
K20P | 0.39
K20D | 0.22
K20Y | -0.59
K20H | -0.13
K20T | 0
K20N | -0.16
K20I | 0.09
R23D | -0.13
R23C | 0.49
R23L | 0.16
R23A | -0.06
R23F | 0.12
R23G | 0.48
R23Q | 0.33
R23I | -0.31
R23K | -0.04
R23W | -0.61
R23E | 0.28
R23T | 0.24
R23S | -0.16
R23H | 0.2
R23P | 0.31
R23N | 0.03
R23M | -0.27

Variant | SGCB cell-surface expression functional score (log10)
R23Y | 0.05
R23V | 0.59
P17Q | -0.31
P17D | 0.27
P17I | -0.28
P17K | 0.13
P17L | -0.13
P17N | 0.1
P17G | -0.18
P17Y | 0.31
P17V | -0.13
P17H | 0.1
P17C | 0.46
P17T | 0.31
P17A | 0.2
P17S | 0.12
P17R | -0.12
P17M | -0.04
P17F | 0.2
P17E | 0.21
P17W | -0.2
R30K | 0.16
R30H | -0.02
R30A | 0.22

Variant | SGCB cell-surface expression functional score (log10)
R30S | 0.04
R30I | -0.19
R30W | 0.33
R30T | 0.19
R30V | -0.05
R30F | 0.27
R30D | 0.85
R30M | -0.06
R30C | 0.31
R30G | 0.59
R30E | 0.42
R30Q | 0.15
R30L | 0.15
R30N | 0.64
R30P | -0.15
R30Y | -0.56
E24M | -0.63
E24I | 0.08
E24A | 0
E24V | 0.26
E24H | 0.46
E24T | 0.2
E24Q | 0.01
E24D | 0.17

Variant | SGCB cell-surface expression functional score (log10)
E24K | 0.09
E24G | 0.08
E24S | 0.26
E24L | 0.02
E24Y | -0.19
E24W | 0.05
E24C | -0.3
E24P | 0
E24N | 0.02
E24R | -0.41
E24F | -0.05
R29A | 0.46
R29K | -0.66
R29V | -0.29
R29Y | 0.23
R29I | 0.13
R29L | -0.3
R29M | -0.81
R29C | 0.5
R29G | 0.3
R29F | -0.17
R29T | -0.04
R29H | -0.15
R29E | 0.41

Variant | SGCB cell-surface expression functional score (log10)
R29W | 0.21
R29S | 0.25
R29P | 0.32
R29N | 0.21
R29Q | 0.16
R29D | -0.22
S21V | 0.14
S21P | 0.12
S21G | 0.23
S21L | -0.08
S21D | 0.33
S21H | 0.03
S21M | -0.02
S21N | 0.32
S21Q | -0.25
S21C | 0.5
S21T | 0.07
S21Y | -0.19
S21R | 0.08
S21K | 0.75
S21W | 0.3
S21F | -0.32
S21A | 0.2
S21E | -0.28

Variant | SGCB cell-surface expression functional score (log10)
S21I | 0.3
S31Y | -0.26
S31N | 0.37
S31V | 0.19
S31H | 0.19
S31I | 0.39
S31G | 0.19
S31C | 0.19
S31P | 0.13
S31L | 0.11
S31A | -0.25
S31F | -0.24
S31M | -0.69
S31D | 0.16
S31K | 0.25
S31Q | -0.35
S31T | 0.06
S31R | -0.03
S31W | 0.21
S31E | 0.24
V32N | 0.67
V32C | 0.14
V32K | -0.04
V32H | 0.35

Variant | SGCB cell-surface expression functional score (log10)
V32D | 0.47
V32A | 0.26
V32S | 0.11
V32M | -0.13
V32E | -0.59
V32G | 0.1
V32P | 0.11
V32F | -0.5
V32T | -0.08
V32L | -0.06
V32Q | -0.03
V32I | 0.36
V32R | 0.37
A26E | 0.27
A26H | 0.39
A26N | -0.24
A26G | -0.21
A26L | -0.05
A26R | 0.15
A26W | 0.15
A26I | 0.06
A26K | 0.41
A26D | 0.34
A26Q | 0.19

Variant | SGCB cell-surface expression functional score (log10)
A26M | 0.77
A26S | 0.09
A26C | -0.13
A26T | 0.24
A26Y | -0.11
A26P | 0.09
A26F | 0.47
A26V | 0.53
G16V | 0.38
G16K | 0.11
G16W | 0.23
G16C | -0.06
G16Y | 0.23
G16N | 0.14
G16P | 0.37
G16S | 0.37
G16I | -0.02
G16D | 0.57
G16L | -0.08
G16E | 0.38
G16A | -0.31
G16M | 0.4
G16R | 0.04
G16F | 0.52

Variant | SGCB cell-surface expression functional score (log10)
G16T | -0.27
G16Q | 0.97
G16H | 0.08
K19W | 0.32
K19V | -0.01
K19F | 0.01
K19H | 0.21
K19C | -0.11
K19R | 0.18
K19I | 0.14
K19E | 0.33
K19A | 0.35
K19N | 0.14
K19Q | -0.12
K19L | 0.3
K19D | 0.06
K19Y | 0.34
K19M | 0.02
K19G | 0.02
K19S | 0.21
K19T | -0.07
K19P | 0.42

From the supplement of paper PMC10266784
